Experimental data reported in paper PMC12752125.

Biological target: porcine PD-1 (programmed death 1) expressed on HEK293T cells (porcine)
Test: flow cytometry on cells; HEK293T cells transfected with pcDNA3.1-PD-1 (or empty vector) for 24 h; purified PD-L1-Fc added and incubated for 1 h; percent of positive cells read

porcine PD-L1-rabbit Fc fusion protein was tested, and the percent of cells positive was 38.3%.
